The text below walks through data of patent publication US20240327480A1 (published 2024).

Ends that are not written are not given here. * marks the point of attachment. Biotin = O=C1N[C@H]2[C@H](CS[C@H]2CCCCC(=O)*)N1

For assay [1], the target named is T1, AA111-228 DNA-binding domain of RXR-alpha (human, UniProt P19793 111-228).
T1 construct: range 111-228; Bought recombinant protein (Abcam); also called RXRa-DBD; RXR-alpha DBD
T1 sequence (looked up): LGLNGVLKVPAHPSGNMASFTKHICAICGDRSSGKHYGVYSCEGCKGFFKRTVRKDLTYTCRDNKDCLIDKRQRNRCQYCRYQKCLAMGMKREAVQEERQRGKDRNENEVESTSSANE
Put plainly: plate binding assay, 800 ng/well SA488-labelled peptide on 1 ug/well adsorbed RXRa-DBD. On the procedure: Experiment 4A. Binding of immodulin peptides to AA111-228 DNA-binding domain of RXR-alpha (RXRa-DBD). 1 ug/well recombinant RXRa-DBD (Abcam, Cambridge, MA) was adsorbed to wells of a 96-well plate for 60 minutes at room temperature, then blocked with 200 uL 1% bovine serum albumin (BSA) in PBS buffer overnight. Plate was washed and 800 ng/well Streptavidin-Alexa 488 conjugate (SA488)-labelled immX peptide was added. The plate was incubated for 60 min at room temperature, washed and counted in a standard fluorometer (excitation/emission 485/525 nm). Background (buffer alone) was subtracted.

Assay [2] has as its target T2, RXR-alpha ligand-binding domain (human, UniProt P19793 223-462, limits assumed).
T2 construct: Bought recombinant protein (Abcam); also called RXRa-LBD; RXR-alpha LBD
T2 sequence (looked up): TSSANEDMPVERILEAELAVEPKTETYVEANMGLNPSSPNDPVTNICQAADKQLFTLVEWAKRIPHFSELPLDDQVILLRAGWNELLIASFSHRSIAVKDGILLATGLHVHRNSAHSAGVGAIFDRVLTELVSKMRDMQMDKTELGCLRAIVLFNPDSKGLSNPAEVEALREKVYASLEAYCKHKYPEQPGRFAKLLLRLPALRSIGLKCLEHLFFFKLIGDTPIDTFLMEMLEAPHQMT
Kind of assay: plate binding assay, 800 ng/well SA488-labelled peptide on 100 ng/well adsorbed domain. On the procedure: (§1) Experiment 4B. Binding of immodulin peptides to RXR isoforms and domains. 100 ng/well recombinant human RXRa-DBD or RXRa-LBD, or 400 ng/well full length RXR-alpha, RXR-beta, RXR-gamma or PPAR-gamma (Abcam, Cambridge, MA) was adsorbed to wells of a 96-well plate for 60 minutes at room temperature, then blocked with 200 uL 1% BSA in PBS buffer overnight. The plate was washed with PBS and 800 ng/well Streptavidin-Alexa 488 conjugate (SA488)-labelled peptide was added. The plate was incubated for 2 hours at room temperature, washed and counted in a fluorometer (excitation/emission 485/525 nm).

Assay [3] has as its target T1, AA111-228 DNA-binding domain of …. Described as above. On the procedure: as §1
Assay [4] has as its target T3, full length RXR-alpha (human, UniProt P19793 1-462).
T3 construct: mature; also called RXRα; NR2B1
T3 sequence (looked up): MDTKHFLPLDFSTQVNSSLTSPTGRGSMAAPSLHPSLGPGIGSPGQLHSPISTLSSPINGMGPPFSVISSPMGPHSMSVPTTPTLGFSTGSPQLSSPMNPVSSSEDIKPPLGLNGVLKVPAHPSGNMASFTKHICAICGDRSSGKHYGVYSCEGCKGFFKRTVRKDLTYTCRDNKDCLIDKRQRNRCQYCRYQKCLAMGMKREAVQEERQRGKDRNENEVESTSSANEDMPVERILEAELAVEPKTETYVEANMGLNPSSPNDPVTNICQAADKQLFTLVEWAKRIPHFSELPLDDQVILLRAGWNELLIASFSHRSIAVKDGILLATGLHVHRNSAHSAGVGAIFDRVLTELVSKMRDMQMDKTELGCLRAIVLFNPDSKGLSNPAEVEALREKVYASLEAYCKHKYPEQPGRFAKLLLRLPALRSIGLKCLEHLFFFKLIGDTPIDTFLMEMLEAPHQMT
Kind of assay: plate binding assay, 800 ng/well SA488-labelled peptide on 400 ng/well adsorbed receptor. On the procedure: as §1

The target of assay [5] is T4, full length RXR-gamma (human, UniProt P48443 1-463).
T4 construct: mature; also called RXRγ; NR2B3
T4 sequence (looked up): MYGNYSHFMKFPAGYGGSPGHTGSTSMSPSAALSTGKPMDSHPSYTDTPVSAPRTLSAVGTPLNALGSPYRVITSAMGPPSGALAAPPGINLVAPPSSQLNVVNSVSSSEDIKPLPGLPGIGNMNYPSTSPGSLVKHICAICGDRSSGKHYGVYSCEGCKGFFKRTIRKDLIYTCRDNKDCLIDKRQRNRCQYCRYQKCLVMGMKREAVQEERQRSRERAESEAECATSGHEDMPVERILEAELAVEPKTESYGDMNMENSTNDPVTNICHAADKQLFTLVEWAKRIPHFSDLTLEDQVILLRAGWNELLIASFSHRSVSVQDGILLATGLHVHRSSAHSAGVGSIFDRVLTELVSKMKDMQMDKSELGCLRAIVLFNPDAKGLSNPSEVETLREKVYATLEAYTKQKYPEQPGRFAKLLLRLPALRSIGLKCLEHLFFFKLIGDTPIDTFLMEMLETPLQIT
Described as above. On the procedure:
as §1

For assay [6], the target named is T5, full length PPAR-gamma (human, UniProt P37231 1-505).
T5 construct: mature
T5 sequence (looked up): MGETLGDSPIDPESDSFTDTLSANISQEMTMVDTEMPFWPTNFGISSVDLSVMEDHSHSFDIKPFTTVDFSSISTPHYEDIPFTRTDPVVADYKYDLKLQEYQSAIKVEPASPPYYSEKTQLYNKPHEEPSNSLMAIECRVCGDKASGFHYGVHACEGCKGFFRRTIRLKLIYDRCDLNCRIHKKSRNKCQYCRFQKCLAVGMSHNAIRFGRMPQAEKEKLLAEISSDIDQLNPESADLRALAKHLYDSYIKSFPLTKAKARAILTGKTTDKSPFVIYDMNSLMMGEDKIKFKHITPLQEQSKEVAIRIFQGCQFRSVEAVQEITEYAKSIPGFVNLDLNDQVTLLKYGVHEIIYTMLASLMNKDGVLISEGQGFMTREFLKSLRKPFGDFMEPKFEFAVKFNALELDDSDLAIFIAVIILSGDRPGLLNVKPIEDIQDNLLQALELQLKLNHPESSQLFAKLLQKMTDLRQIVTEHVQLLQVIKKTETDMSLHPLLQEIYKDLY
Described as above. On the procedure:
as §1

In assay [7] the target is T6, full length RXR-beta (human, UniProt P28702 1-533).
T6 construct: mature; also called RXRβ; NR2B2
T6 sequence (looked up): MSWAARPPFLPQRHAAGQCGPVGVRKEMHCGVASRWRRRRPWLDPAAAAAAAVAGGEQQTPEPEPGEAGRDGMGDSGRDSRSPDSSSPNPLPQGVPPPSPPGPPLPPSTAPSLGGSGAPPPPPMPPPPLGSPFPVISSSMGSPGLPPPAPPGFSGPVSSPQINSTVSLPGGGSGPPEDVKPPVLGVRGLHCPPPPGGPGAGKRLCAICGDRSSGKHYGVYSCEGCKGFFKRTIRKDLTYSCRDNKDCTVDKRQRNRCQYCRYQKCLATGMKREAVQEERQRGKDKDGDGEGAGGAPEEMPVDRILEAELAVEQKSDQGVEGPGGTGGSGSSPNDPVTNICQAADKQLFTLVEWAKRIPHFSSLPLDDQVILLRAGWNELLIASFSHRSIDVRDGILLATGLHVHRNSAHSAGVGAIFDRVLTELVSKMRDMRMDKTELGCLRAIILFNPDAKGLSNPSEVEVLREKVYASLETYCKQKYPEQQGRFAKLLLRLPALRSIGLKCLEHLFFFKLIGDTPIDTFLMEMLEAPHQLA
The assay is described as above. On the procedure:
as §1

Assay [8] deals with T7, full-length human Nur77 (NR4A1) (human, UniProt P22736 1-598).
T7 construct: mature
T7 sequence (P22736 whole entry): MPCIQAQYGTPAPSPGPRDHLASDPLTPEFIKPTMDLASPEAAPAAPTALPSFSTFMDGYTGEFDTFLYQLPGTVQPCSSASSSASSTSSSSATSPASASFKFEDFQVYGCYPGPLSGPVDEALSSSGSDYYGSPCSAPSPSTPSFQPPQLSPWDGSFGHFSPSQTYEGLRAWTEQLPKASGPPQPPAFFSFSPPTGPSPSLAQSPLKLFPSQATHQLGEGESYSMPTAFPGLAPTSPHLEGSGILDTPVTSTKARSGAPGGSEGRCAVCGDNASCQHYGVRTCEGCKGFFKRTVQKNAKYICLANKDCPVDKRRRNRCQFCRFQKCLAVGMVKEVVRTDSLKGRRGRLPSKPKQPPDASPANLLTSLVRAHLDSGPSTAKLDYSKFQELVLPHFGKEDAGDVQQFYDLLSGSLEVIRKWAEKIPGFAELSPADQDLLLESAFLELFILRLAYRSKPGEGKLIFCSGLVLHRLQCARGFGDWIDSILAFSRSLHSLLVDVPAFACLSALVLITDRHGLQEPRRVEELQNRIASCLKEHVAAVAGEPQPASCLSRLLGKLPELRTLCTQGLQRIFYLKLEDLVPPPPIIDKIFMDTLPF
Kind of assay: plate binding assay, SA488-labelled peptide on adsorbed Nur77, fluorescence. On the procedure: Experiment 4C. Binding of immodulin peptides to full-length human Nur77 (NR4A1). 400 ng/well recombinant human Nur77 protein (NR4A1) purchased from Abcam Inc, Cambridge, MA, was adsorbed to wells of a 96-well plate for 90 minutes at room temperature, then blocked with 200 uL 1% BSA in PBS buffer overnight. […] The plate was incubated for 60 min at room temperature, washed and counted in a standard fluorometer (excitation/emission 485/525 nm). Background (buffer alone) was subtracted.

B1: imm3 (peptide)
peptide: Biotin-KKGFYKKKQCRPSKGRKRGFCW
modifications: cysteine pairing not given here; also: labelled with Streptavidin-Alexa 488 conjugate (SA488)
notes: Synthetic immodulin peptide derived from IGFBP-3; also called immodulin peptide-3
In the case of B1, the “Fluorescence (background subtracted)” value in assay [1] was 6570 fluorescence counts. Besides, the “fluorescence relative to imm3 binding (=100)” value in assay [2] was 0.6 relative to imm3 binding (=100); in assay [3], 22.2 relative to imm3 binding (=100); in assay [4], 11.2 relative to imm3 binding (=100); in assay [5], 100 relative to imm3 binding (=100); in assay [6], 2.1 relative to imm3 binding (=100); in assay [7], 2.9 relative to imm3 binding (=100).

B2: imm5 (peptide)
peptide: Biotin-RKGFYKRKQCKPSRGRKRGICW
modifications: cysteine pairing not given here; also: labelled with Streptavidin-Alexa 488 conjugate (SA488)
notes: Synthetic immodulin peptide derived from IGFBP-5; also called immodulin peptide-5
With B2, the “Fluorescence (background subtracted)” value in assay [1] was 6800 fluorescence counts. In addition, the “fluorescence relative to imm3 binding (=100)” value was 1.8 relative to imm3 binding (=100) in assay [2]; 22.7 relative to imm3 binding (=100) in assay [3]; 17.2 relative to imm3 binding (=100) in assay [4]; 90 relative to imm3 binding (=100) in assay [5]; 1.6 relative to imm3 binding (=100) in assay [6]; 4 relative to imm3 binding (=100) in assay [7].

B3: imm4 (peptide)
peptide: Biotin-RNGNFHPKQCHPALDGQRGKCW
modifications: cysteine pairing not given here; also: labelled with Streptavidin-Alexa 488 conjugate (SA488)
notes: Synthetic immodulin peptide derived from IGFBP-4
B3: the “Fluorescence (background subtracted)” value in assay [1] is 27 fluorescence counts. The “fluorescence relative to imm3 binding (=100)” value is 3 relative to imm3 binding (=100) in assay [2]; 3.2 relative to imm3 binding (=100) in assay [3]; 3.6 relative to imm3 binding (=100) in assay [4]; 3.6 relative to imm3 binding (=100) in assay [5]; 0.1 relative to imm3 binding (=100) in assay [6]; 0.3 relative to imm3 binding (=100) in assay [7]. Further, in assay [8], the binding result is recorded as “no binding (tested: 333 ng/well peptide on 400 ng/well Nur77)”.

B4: imm6 (peptide)
peptide: Biotin-HRGFYRKRQCRSSQGQRRGPCW
modifications: cysteine pairing not given here; also: labelled with Streptavidin-Alexa 488 conjugate (SA488)
notes: Synthetic immodulin peptide derived from IGFBP-6; also called immodulin peptide-6
For the molecule B4, the “Fluorescence (background subtracted)” value in assay [1] stood at 587 fluorescence counts. Also, the “fluorescence relative to imm3 binding (=100)” value is 1.6 relative to imm3 binding (=100) in assay [2]; 22.9 relative to imm3 binding (=100) in assay [3]; 12.9 relative to imm3 binding (=100) in assay [4]; 42 relative to imm3 binding (=100) in assay [5]; 4.7 relative to imm3 binding (=100) in assay [7]. Also, in assay [6], the fluorescence relative to imm3 binding (=100) (relative to imm3 binding (=100)) turned out to be 6.8.
